# According to the DeepSol protein solubility set:
# Assay: soluble on expression in E. coli; label from the status in PepcDB or PDB records
row,Sequence,soluble on expression in E. coli
1,MSLKSISLLLLSLLMITPSCQKPKEVTNEYNIVPQPNQLVPKEGRFELSNKVRLVVPSDAPEVKKVADGFAEQLKQTAGISLTEAESVDGKPAISFVLQEGMPKEGYKLSVTPTLITVTASQPNGFFYGVQTIYQLLPPAVYGKELKKKADWSVPAVEIEDAPRFVHRGLMLDVCRHYAPIEYIYKFIDLLAMNKMNVFHWHLTDDQGWRIEIKKYPKLTEIGSKREKTLVDYYYVNYPQVFDGIEHGGYYTQEQIKEVVAYAASKYINVIPEIEMPGHALAALAAYPELSCDSTQTYKVSPTWGVFEQVFCPSETTFKFFEGVMDEVVELFPSEYIHIGGDECPKTAWKNSTFCQQLIRQLGLKDDATPSKVDGVKHSKEDKLQSYFVTRMEKYLNGKGRNIIGWDEILEGGLAPNATVLSWRGVEGGLNAAKAGHNAIMAPMPYAYLDFYQEDPEIAPTTIGGYTTLKKTYSYNPVPDNADELVKKHIIGMQGNLWREYMKTSDRVDYQAFPRAMAIAETGWTLDANKNWKSFCERMVTEFERLEVMDTKPCLNFFDVNINTHADENGPLMVLLETFYPNAEIRYTTDGSEPTYGSTLYEQPFVLEGNIDLKAAAFKDGKMLGKVTNKPLYGNLLAGKEGHHHHHH,soluble
2,MGSDKIHHHHHHVNIQEQFLGSGSRGSYELHLVDRRPKDVLEQAEALPFWKQDYTQLDKGAFSGAVTSVSCQGIQIFREKMNRAVDQLASAPADTYVIGLPTMIEGEATWGMLPVKQDSLITLNKNTELLFRTSHCSEIAAAVISAQRLEEYAALVEWVDLREIMRKVKAVEQISSTIANRLMTSLVGGTRYISDVHESASVKHMWPNFEEDLMSTCLQALVQAKDSINHHYDHRIHRYIVNRVRDFTLLNSCCPLTISELCIELRVSRRTLNHAFLRVLGITPVAYMRNVRLHRVRAELQSAPDSVTSIANVATKWGFWHMSLFSRYYRELFGECPNKTLERTRLHKA,not soluble
3,SDHGSNEIDRHLTPGASPAYIGINKEKKLLYTANYHTAVLSVFQYSNSGKLALVAQTTHKAESLGPRPEQVDGPHPHFFDETPAGNLVSCDLGNDTVDFYRLENNELKHLAQYKNEAGFGDRHIVFSKDGNYFYVVGELSSQINVVKFNENTWEFEDIATYKTIPEDFTEHNGAAALYITNDGKYIYNSNRGHNSITVFKVNDDHTLSLIQRISTFGDFPRDFNWDETQKYVVAANQNT,soluble
4,MGSDKIHHHHHHMAKAKTQFVCSNCGYSTPRYLGRCPNCGEWNTLTEEHFDTKPDRKSRVSFAGKSAKPQRLKEVSLTKTPRVKTKLKEFNRVLGGGVVPGSLVLIGGDPGIGKSTLLLQVSGQLAETGGSVLYVTGEESASQVKMRADRLAVSSEDFYLYPETDMSNIRSTIESTHPEFVVIDSVQTMQEPDMDSAIGSVSQIREITAELLQIAKTNGITIFIVGHVTKGGAIAGPKILEHMVDTVLYFEGDLHHTYRILRAVKNRFGSTNELGIFEMRTGGLYEVANPSEIFLEERLKDATGSAIVVSMEGTRPILVEVQALVTPTVFGNAKRTASGLDHNRVSLIMAVLEKRASLMLQNQDAYLKAAGGVKLDEPAIDLAIAVSVASSYRDQQTRPSDCFVGEVGLTGEIRRVNRIESRVGEAAKLGFKRIFIPKNNLQGWDIPTGIEVIGVATLKEALQLALQQPNY,not soluble
5,MGSDKIHHHHHHMEIKCIITDDEPIARKGLRRHIGKIDFLTIVGECEDAIQLNNMLNSVQADLLFLDIEMPDMSGLDFLESAQNAPKVIITSAYERYALRGYEFDVVDYLLKPISFSRFLKSVNKAHALMESTSKSEEPAYIFVKTEKQLKRLYLKEIQFIEGMENYIVIHTLTSKEIVHLRLKSIQETLPAQIFMQVHRSFIVNLSYVQAIEGNLLIIGEHKIPVSRPLREEVYKSIVNNQLIQR,not soluble
6,SLQHAPLNFVPDAAKVPPTPGQSPNARWSREAIEALFALPFNDLLFQAQQVHRAHFDANAVQLSTLLSIKTGGCPEDCSYCPQSARYDTGVEAEKLMPIDTVLEAAARAKQNGASRFCMGAAWRNPKPHQLDAVADMVRGVKAMGLETCVTLGMLKQEQAQQLKDAGLDYYNHNLDTAPEFYGEIITTRTYQDRLDTLEHVRDAGINVCCGGIVGLGESRHERAGLVAELANMEPYPDSVPINNLVKVEGTPLAGNEALDPFEFVRTIAVARITMPKAMVRLSAGREAMDDALQALCFMAGANSIFYGEKLLTTDNPEADADRKLLARLGMRVEVQDHLHQAEGAQHSHSSHCHIDITPADEG,soluble
7,MGSDKIHHHHHHQEPENQTLETILNRKSVRKYKDRPVEKEKIDKLIRAGMAAPSSRDRRPWEFIIVTDRKALDTMAEGLPFARMLKETRQAIVVCGDTIKSSNAWFLDCSAASQNLLLAAESMGLGAVWTAVYPYPDRIEIVRKELRLPDHIMPLNVIPVGYPMQKETPKNKYNVQQIHHNGW,not soluble
8,GPGSMTQPSAVVAIGGGLRLLAQPAPTPTADGSSQALTDVFLSEYCAPLQRSSHHLHTHVPRYTVPTPASRRYTPRAGDPVLAIIARKVSQHYYYCYIGGSALAYMDALAFDGATKVSRPRLVEGDVVYCYVKPREGSSYVDGVHRSVASEVFDTTGEVEVSCTAAEVGLPPKDWTSGEAVFGPLQGGRVLHLPLVYVRRLLTPMGSSPEKASAQQRKRDHTEGEGSDGDEVPASYLLQLLGRRVPFEVAVGLNGLVWVRGLSSEADATAAARRTVAVSSCISEAQYDVTRAEMEARVEVYFPS,not soluble
9,MHKVSATLLIIDDDEVVRESLAAYLEDSNFKVLQALNGLQGLQIFESEQPDLVICDLRMPQIDGLELIRRIRQTASETPIIVLSGAGVMSDAVEALRLGAADYLIKPLEDLAVLEHSVRRALDRAYLRVENQRYRDKLEAANRELQASLNLLQEDQNAGRQVQMNMLPVTPWSIEGLEFSHRIIPSLYLSGDFVDYFRVDERRVAFYLADVSGHGASSAFVTVLLKFMTTRLLYESRRNGTLPEFKPSEVLAHINRGLINTKLGKHVTMLGGVIDLEKNSLTYSIGGHLPLPVLFVEGQAGYLEGRGLPVGLFDDATYDDRVMELPPSFSLSLFSDGILDVLPGATLKEKEASLPEQVAAAGGTLDGLRQVFGLANLAEMPDDIALLVLSRNLA,soluble
10,LGKLDVLKVSAPWLASLRDELDQTCFLAVWGNKGPTVVYVEPSMGAVTLVTQIGSVLPLLSSSTGLVFDSFLAQGETALLREQETPRLSADQLHEVERHIKQIRATGVHQIQGMLMPGINAASSPLFAMGNKLVGVITVVGPGSVLNDKAQGQAARRLLETATAISERMGGSQLRS,soluble
11,MEHLFGKWLPDLPAAISDGISLPMVRLLHTRSLTAALRALPHTFSVELLKLGELETECGGRLVREVLLKLDRIPVVEARSECRIGSAFWQNILDCGTRPLGERLFQADLEGARSAFEFAVAGEGCGRYFAARRSRFSRHGEEMLLTEYFLPELKRFIG,not soluble
12,SKSRRWVFALRHGERVDLTYGPWVPHCFENDTYVRKDLNLPLKLAHRAGGKGGYVKDTPLTRLGWFQAQLVGEGMRMAGVSIKHVYASPALRCVETAQGFLDGLRADPSVKIKVEPGLFEFKNWHMPKGIDFMTPIELCKAGLNVDMTYKPYVEMDASAETMDEFFKRGEVAMQAAVNDTEKDGGNVIFIGHAITLDQMVGALHRLRDDMEDVQPYEIGRNLLKVPYCALGAMRGKPWDVVSPPCPPSINSSSGRFDWRILIK,soluble
13,AHHHHHHGSPTWEELYKNAIEKAIKSVPKVKGVLLGYNTNIDAIKYLDSKDLEERIIKAGKEEVIKYSEELPDKINTVSQLLGSILWSIRRGKAAELFVESCPVRFYMKRWGWNELRMGGQAGIMANLLGGVYGVPVIVHVPQLSRLQANLFLDGPIYVPTLENGEVKLIHPKEFSGDEENCIHYIYEFPRGFRVFEFEAPRENRFIGSADDYNTTLFIREEFRESFSEVIKNVQLAILSGLQALTKENYKEPFEIVKSNLEVLNEREIPVHLEFAFTPDEKVREEILNVLGMFYSVGLNEVELASIMEILGEKKLAKELLAHDPVDPIAVTEAMLKLAKKTGVKRIHFHTYGYYLALTEYKGEHVRDALLFAALAAAAKAMKGNITSLEEIREATSVPVNEKATQVEEKLRAEYGIKEGIGEVEGYQIAFIPTKIVAKPKSTVGIGDTISSSAFIGEFSFTL,not soluble
14,GLPARSSSISNTNRTGENPMITPIISSNLGLKHRVTLRKATLASLMQSLSGESSNRVMWNDRYDTLLIARDPREIKNAIEKSVTDFGGLENYKELTGGADPFALMTPVCGLSANNIFKLMTEKDVPIDPTSIEYLENTSFAEHVNTLDSHKNYVVIVNDGRLGHKFLIDLPALTQGPRTAYIIQSDLGGGALPAVRVEDWISRRGSDPVSLDELNQLLSKDFSKMPDDVQTRLLASILQIDKDPHKVDIKKLHLDGKLRFASHEYDFRQFQRNAQYVAGLG,soluble
